Entries after “also recorded” stand apart in the source; their conditions may differ.
Key:
genomic DNA = experiment: Spermidine sensitivity of nucleases on genomic DNA; format: biochemical; conditions: Spermidine titrated from 10 μM-10 mM
[1] = test system: Biofilms formed for 24 h by the indicated bacteria (Kp=K. pneumoniae); experiment: B-DNA / Z-DNA abundance after DNase in 24 h biofilms of the indicated bacteria (ImageJ fluorescence ratio); format: cell-based; conditions: Pulmozyme 40 U/ml for 16 h
Protocol: FIGS. 48A-48B: Z-DNA in biofilms forms a nuclease-resistant scaffold. (FIG. 48A) Biofilms formed for 24 h by the indicated bacteria (Kp=K. pneumoniae) were incubated with DNase (Pulmozyme®; 40 U/ml) for an additional 16 h. Biofilms were then probed with anti-B-DNA (dark gray) and anti-Z-DNA (white) antibodies and counterstained with the bacterial cell membrane stain FM4-64™ (not shown). (FIG. 48B) Changes in abundance of B-DNA or Z-DNA were quantified using ImageJ by calculation of the ratio of fluorescence intensity of B-DNA or Z-DNA after DNase addition divided by the fluorescence intensity in the absence of DNase (Control). Fluorescence intensity was normalized to the fluorescence signal of FM4-64™-stained cells. Bars represent the SEM. Statistical significance compared to Control (no DNase, dotted line) was assessed by paired t-tests, *P<0.05; ****P<0.0001.

[2] = biological target: T1, DNABII-polyamine dependent DNA structures (Haemophilus influenzae, UniProt P43722); experiment: EPS scaffold mimetic (gDNA + HU + spermidine) structures, CLSM; format: biochemical; conditions: gDNA 2 μg/ml + HU + spermidine; Pulmozyme treatment
T1 sequence (P43722 whole entry, looked up): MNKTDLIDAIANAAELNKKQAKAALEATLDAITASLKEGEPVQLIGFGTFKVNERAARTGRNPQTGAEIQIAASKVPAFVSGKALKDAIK
Protocol: FIGS. 4A-4B: Anti-DNABII disrupts DNABII-polyamine (PA) dependent structures. (FIG. 4A) DNA structures were formed by incubating spermidine (300 μM) and HU (1 μM) in buffer that contained genomic DNA (gDNA; 2 μg/ml) for 40 h. Immunofluorescence CLSM images of DNABII-polyamine dependent DNA structures. Probed for DNABII proteins (white; indicated on the right side of the image) and counterstained with DAPI (white; indicated on the left side of the image). DNABII polyamine dependent DNA structures incorporate DNABII proteins. (FIG. 4B) EPS structures were formed as in (FIG. 4A) for 24 h and treated for additional 16 h with 1:50 dilution of DNABII antiserum (indicated below the image). Fluorescence CLSM images stained with DAPI (white). DNABII-polyamine dependent DNA structures require DNABII proteins.
FIG. 45: Polyamines and DNABII proteins stimulate Z-DNA, which is DNAse resistant. Immunofluorescence images of EPS scaffold mimetic formed de novo by addition of DNABII protein (HUNTHI, 500 nM) and spermidine (300 μM) to purified genomic DNA (2 μg/ml) and incubation at 37° C. for 16 h. […]
Applicants hypothesized that DNABII and polyamines interact with eDNA synergistically to confer DNase resistance to mature biofilms. […] Degradation was assessed by agarose gel electrophoresis and UV illumination. […]

B1: DNase: Pulmozyme, a recombinant human DNase used for management of cystic fibrosis patients (protein, UniProt P24855 23-282, looked up)
Deoxyribonuclease-1: LKIAAFNIQTFGETKMSNATLVSYIVQILSRYDIALVQEVRDSHLTAVGKLLDNLNQDAPDTYHYVVSEPLGRNSYKERYLFVYRPDQVSAVDSYYYDDGCEPCGNDTFNREPAIVRFFSRFTEVREFAIVPLHAAPGDAVAEIDALYDVYLDVQEKWGLEDVMLMGDFNAGCSYVRPSQWSSIRLWTSPTFQWLIPDSADTTATPTHCAYDRIVVAGMLLRGAVVPDSALPFNFQAAYGLSDQLAQAISDHYPVEVMLK
Genomic DNA
  Spd inhibition: spermidine concentration where nuclease was reduced to <10% activity on genomic DNA: 300 µM
[1]
  B-DNA abundance after DNase: B-DNA is degraded
  Z-DNA abundance after DNase: Z-DNA is resistant
[2]
  effect of DNase on EPS scaffold mimetic structures: DNA structures were resistant to DNase; also recorded: selectively eliminated B-DNA whereas Z-DNA remained intact

Source: patent US20210139610A1, “COMPOSITIONS AND METHODS FOR MEDIATING EPS” (priority 2018, published 2021)
